Experimental data published in patent publication US20200164032A1 (WASHINGTON UNIVERSITY, published 2020).

Tests used:
[1] = target: T1, human CCL3 (human, UniProt P10147 23-92); test: SPR, R17 264GG(G)DS267 on CM5 chip, hCCL3 injected
T1 construct: also called hCCL3
T1 sequence: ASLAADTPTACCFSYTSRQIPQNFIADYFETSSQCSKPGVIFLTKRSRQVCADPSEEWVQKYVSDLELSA

[2] = target: T2, murine CCL2 (mouse, UniProt P10148 24-148); test: SPR, mutant R17 on CM5 chip
T2 construct: also called mCCL2

[3] = target: T3, murine CCL3 (mouse, UniProt P10855 24-92)
T3 sequence: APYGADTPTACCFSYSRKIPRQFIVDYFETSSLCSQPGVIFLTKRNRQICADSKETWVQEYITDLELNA

[4] = target: CCL2 (species not given); test: SPR, R17 variant on CM5 chip; column KD (nM), kinetic
[5] = target: CCL3 (species not given); test: SPR, R17 variant on CM5 chip; column KDeq (nM); ka, kd, KD printed n/a
[6] = target: CCL2 (species not given); test: SPR, R17 variant on CM5 chip; column KDeq (nM)
[7] = target: CCL2 (species not given); test: SPR, R17 variant on CM5 chip; column ka x 10^6 M-1s-1
[8] = target: CCL2 (species not given); test: SPR, R17 variant on CM5 chip; column kd x 10^-3 s-1

T2 sequence (P10148 24-148 limits assumed): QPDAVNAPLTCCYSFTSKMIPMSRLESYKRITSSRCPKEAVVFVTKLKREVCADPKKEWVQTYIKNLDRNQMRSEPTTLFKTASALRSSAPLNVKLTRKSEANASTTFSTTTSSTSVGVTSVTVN

B1: R17 264GG(G)DS267 chemokine null mutant (264LIDS267 replaced by 264GG(G)DS267, with a glycine insert (receptor)
chain: GPVGEPVASEINEASKVSSRLLTQDILFRKDRQATISLPIKLPVEDIITQTCDKITYGPLKFLDLLEKETAVLPLSTDITCPACLGRAVLVGKWECPAHVAVNESDLTVFGPNKEEHVPQFVTVQQPSDGKMQRLFFAKFLGTEESLAVLRVPGPDGHLCIQEALIHFKELSGAGVCSLWKANDSREEGLEMKQVDCLETTVLENQTCIATTLSKKIYHRLYCGERLMTGGQVSTRVLLTALGFYKRQPYTFHRVPKGMVYVHGGGDSGSEDYMEYSECEEVTPGRYEDKQISYTFYTDLFQTADGEPVLASVWGTSGLKDSAYESCAFVIPTKGRRKLVPRRIMSKCYPFRLTYHPSTMTVRLDVRVEKHHGATDQGFVFLKMESGTYSEGREYYLDRVLWGEDSSTNNVLQ
- binding result [1]: no binding (tested: 100 nM)

B2: R17 266NAGAQ270 (R17 with 266DSGSE270 mutated to 266NAGAQ270), C-terminal His construct (receptor)
chain: GPVGEPVASEINEASKVSSRLLTQDILFRKDRQATISLPIKLPVEDIITQTCDKITYGPLKFLDLLEKETAVLPLSTDITCPACLGRAVLVGKWECPAHVAVNESDLTVFGPNKEEHVPQFVTVQQPSDGKMQRLFFAKFLGTEESLAVLRVPGPDGHLCIQEALIHFKELSGAGVCSLWKANDSREEGLEMKQVDCLETTVLENQTCIATTLSKKIYHRLYCGERLMTGGQVSTRVLLTALGFYKRQPYTFHRVPKGMVYVHLINAGAQDYMEYSECEEVTPGRYEDKQISYTFYTDLFQTADGEPVLASVWGTSGLKDSAYESCAFVIPTKGRRKLVPRRIMSKCYPFRLTYHPSTMTVRLDVRVEKHHGATDQGFVFLKMESGTYSEGREYYLDRVLWGEDSSTNNVLQ
- binding result [2]: no binding
- Kd [3]: 2.9 nM
- koff [3]: 0.061 s⁻¹
- kon [3]: 3.1e+07 M⁻¹ s⁻¹
- t1/2 [3]: 11.2 s

B3: R17GAG1 (R17 with residues 29 to 32 RKDR mutated to EDDE), C-terminal His construct (receptor)
chain: GPVGEPVASEINEASKVSSRLLTQDILFEDDEQATISLPIKLPVEDIITQTCDKITYGPLKFLDLLEKETAVLPLSTDITCPACLGRAVLVGKWECPAHVAVNESDLTVFGPNKEEHVPQFVTVQQPSDGKMQRLFFAKFLGTEESLAVLRVPGPDGHLCIQEALIHFKELSGAGVCSLWKANDSREEGLEMKQVDCLETTVLENQTCIATTLSKKIYHRLYCGERLMTGGQVSTRVLLTALGFYKRQPYTFHRVPKGMVYVHLIDSGSEDYMEYSECEEVTPGRYEDKQISYTFYTDLFQTADGEPVLASVWGTSGLKDSAYESCAFVIPTKGRRKLVPRRIMSKCYPFRLTYHPSTMTVRLDVRVEKHHGATDQGFVFLKMESGTYSEGREYYLDRVLWGEDSSTNNVLQ
notes: not shown: C-terminal 8-His tag
- Kd [4]: 10 nM
- Kd [5]: 0.8 nM
- Kd [6]: 31 nM
- kon [7]: 1.2e+06 M⁻¹ s⁻¹
- koff [8]: 0.0137 s⁻¹

B4: R17GAG2 (R17 with residues 333 to 337 KGRRK mutated to DGEED), C-terminal His construct (receptor)
chain: GPVGEPVASEINEASKVSSRLLTQDILFRKDRQATISLPIKLPVEDIITQTCDKITYGPLKFLDLLEKETAVLPLSTDITCPACLGRAVLVGKWECPAHVAVNESDLTVFGPNKEEHVPQFVTVQQPSDGKMQRLFFAKFLGTEESLAVLRVPGPDGHLCIQEALIHFKELSGAGVCSLWKANDSREEGLEMKQVDCLETTVLENQTCIATTLSKKIYHRLYCGERLMTGGQVSTRVLLTALGFYKRQPYTFHRVPKGMVYVHLIDSGSEDYMEYSECEEVTPGRYEDKQISYTFYTDLFQTADGEPVLASVWGTSGLKDSAYESCAFVIPTDGEEDLVPRRIMSKCYPFRLTYHPSTMTVRLDVRVEKHHGATDQGFVFLKMESGTYSEGREYYLDRVLWGEDSSTNNVLQ
notes: as for B3
- Kd [4]: 9.5 nM
- Kd [5]: 0.31 nM
- Kd [6]: 40 nM
- kon [7]: 1.2e+06 M⁻¹ s⁻¹
- koff [8]: 0.012 s⁻¹
